Measured values published in the supplement of paper PMC7877785.
± gives the uncertainty stated by the source.

Test: self-splicing fitness, log relative to wild type (ln ratio); higher = more splicing; Tetrahymena group I intron in knt gene, E. coli kanamycin selection, DiMSum; sequences stand for … in CUCUCU…GGAGGGAAAAGUUAUCAGGCAUGCACCUGGUAGCUAGUCUUUAAACCAAUAGAUUGCAUCGGUUUAAAAGGCAAGACCGUCAAAUUGCGGGAAAGGGGUCAACAGCCGUUCAGUACCAAGUCUCAGGGGAAACUUUGAGAUGGCCUUGCAAAGGGUAUGGUAAUAAGCUGACGGACAUGGUCCUAACCACGCAGCCAAGUCCUAAGUCAACAGAUCUUCUGUUGAUAUGGAUGCAGUUCACAGACUAAAUGUCGGUCGGGGAAGAUGUAUUCUUCUCAUAAGAUAUAGUCGGACCUCUCCUUAAUGGGAGCUAGCGGAUGAAGUGAUGCAACACUGGAGCCGCUGGGAACUAAUUUGUAUGCGAAAGUAUAUUGAUUAGUUUUGGAGUACUCGUGGUCG
Summary of the method: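 Colonies from six replicate transformations of E. coli BL21(DE3) were pooled and amplicon-sequenced on an Illumina HiSeq 2500. The library placed an intron with all eight P1ex-region nucleotides randomised inside the knt kanamycin-resistance gene on pET-22b(+), and cells grew overnight at 37°C or 30°C on LB agar with or without 25 μg/mL kanamycin (plus 100 μg/mL carbenicillin, 50 μM IPTG, 0.2% rhamnose). Fitness is the DiMSum error-weighted combination of wild-type-normalised replicate fold changes, kanamycin versus none.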

Sequence	self-splicing fitness (ln) (30 °C)	self-splicing fitness (ln) (37 °C)
UGCCAGCAAUAUUACGAAGU	-2.88 ± 0.22	-2.97 ± 0.23
UGCCAGCAAUAUUACGAAUU	-3.68 ± 0.26	-3.3 ± 0.24
UGCCAGCAAUAUUACGACUA	-0.442 ± 0.1	-0.0497 ± 0.1
UGCCAGCAAUAUUACGCACU	-2.03 ± 0.069	-0.315 ± 0.066
UGCCAGCAAUAUUACGCCCG	-0.317 ± 0.12	0.404 ± 0.14
UGCCAGCAAUAUUACGCCUA	-0.546 ± 0.074	0.0605 ± 0.087
UGCCAGCAAUAUUACGCGAC	-2.62 ± 0.3	-0.608 ± 0.23
UGCCAGCAAUAUUACGCGAU	-2.42 ± 0.17	-1.88 ± 0.23
UGCCAGCAAUAUUACGCGUU	-1.67 ± 0.069	-0.989 ± 0.082
UGCCAGCAAUAUUACGGAAG	-2.55 ± 0.073	-1.42 ± 0.071
UGCCAGCAAUAUUACGGAGU	-4.74 ± 0.27	-1.34 ± 0.13
UGCCAGCAAUAUUACGGAUC	-3.04 ± 0.22	-1.13 ± 0.17
UGCCAGCAAUAUUACGGCUU	-0.887 ± 0.098	-0.247 ± 0.11
UGCCAGCAAUAUUACGGGCC	-3.23 ± 0.21	-1.73 ± 0.2
UGCCAGCAAUAUUACGGUUC	-3.35 ± 0.2	-1.81 ± 0.14
UGCCAGCAAUAUUACGGUUU	-0.471 ± 0.075	-0.237 ± 0.096
UGCCAGCAAUAUUACGUAGG	-3.34 ± 0.25	-0.145 ± 0.17
UGCCAGCAAUAUUACGUCCC	-2.89 ± 0.31	-1.71 ± 0.43
UGCCAGCAAUAUUACGUCUG	-2.57 ± 0.15	-1.48 ± 0.16
UGCCAGCAAUAUUACGUGAC	-3.43 ± 0.16	-3.2 ± 0.22
UGCCAGCAAUAUUACGUGUC	-3.01 ± 0.19	-1.04 ± 0.13
UGCCAGCAAUAUUACGUUAU	-3.98 ± 0.2	-0.982 ± 0.12
UGCCAGCAAUAUUACGUUCA	-0.171 ± 0.059	-0.0317 ± 0.089
UGCCAGCAAUAUUACGUUCG	-0.361 ± 0.07	0.136 ± 0.089
UGCCAGCAAUAUUACGUUGG	-3.91 ± 0.18	-2.22 ± 0.15

Sequence	self-splicing fitness (ln) (30 °C)	self-splicing fitness (ln) (37 °C)
UGCGAGCAAUAUUACGAAAA	-1.24 ± 0.27	
UGCGAGCAAUAUUACGAAUG	-2.77 ± 0.18	-2.43 ± 0.23
UGCGAGCAAUAUUACGACAU	-3.628 ± 0.028	-2.26 ± 0.039
UGCGAGCAAUAUUACGACCU	-0.697 ± 0.18	-0.146 ± 0.2
UGCGAGCAAUAUUACGACGA	-1.13 ± 0.13	-0.458 ± 0.13
UGCGAGCAAUAUUACGAGGU	-1.68 ± 0.19	-2.24 ± 0.28
UGCGAGCAAUAUUACGCAAG	-2.27 ± 0.27	
UGCGAGCAAUAUUACGCCAU		-2.45 ± 0.49
UGCGAGCAAUAUUACGCCCU	-0.783 ± 0.39	
UGCGAGCAAUAUUACGCUUA	-1.98 ± 0.16	-1.46 ± 0.22
UGCGAGCAAUAUUACGGCCU	-1.85 ± 0.2	-1.45 ± 0.24
UGCGAGCAAUAUUACGGCGA	-0.753 ± 0.099	-0.754 ± 0.11
UGCGAGCAAUAUUACGGCUU	-1.76 ± 0.2	-2.61 ± 0.33
UGCGAGCAAUAUUACGGGGA	-2.81 ± 0.39	-1.9 ± 0.29
UGCGAGCAAUAUUACGGGGG	-3.34 ± 0.26	-2.36 ± 0.29
UGCGAGCAAUAUUACGGGUC	-4.21 ± 0.27	-2.72 ± 0.3
UGCGAGCAAUAUUACGGUUA	-0.797 ± 0.11	-0.443 ± 0.12
UGCGAGCAAUAUUACGUAAC	-3.17 ± 0.18	-3.09 ± 0.27
UGCGAGCAAUAUUACGUCAG	-2.69 ± 0.27	-2.11 ± 0.43
UGCGAGCAAUAUUACGUGAC	-3.73 ± 0.36	-2.31 ± 0.26
UGCGAGCAAUAUUACGUGUU	-3.58 ± 0.43	-2.47 ± 0.32
UGCGAGCAAUAUUACGUUGU	-2.79 ± 0.18	-3.05 ± 0.27
UGCUAGCAAUAUUACGAAUC	-3.2 ± 0.15	-3.95 ± 0.29
UGCUAGCAAUAUUACGACGU	-1.71 ± 0.22	-2.36 ± 0.32
UGCUAGCAAUAUUACGAGGG	-2.22 ± 0.15	-2.43 ± 0.19

Sequence	self-splicing fitness (ln) (30 °C)	self-splicing fitness (ln) (37 °C)
UGCUAGCAAUAUUACGCGCC	-1.26 ± 0.2	-0.477 ± 0.29
UGCUAGCAAUAUUACGCGGG	-3.41 ± 0.28	-2.38 ± 0.31
UGCUAGCAAUAUUACGGACU	-0.341 ± 0.1	-0.639 ± 0.088
UGCUAGCAAUAUUACGGCAG	-2.52 ± 0.12	-1.1 ± 0.13
UGCUAGCAAUAUUACGGUCG	0.0903 ± 0.098	0.362 ± 0.14
UGCUAGCAAUAUUACGUACC		0.784 ± 0.4
UGCUAGCAAUAUUACGUAGA	-2.3 ± 0.18	-0.929 ± 0.17
UGCUAGCAAUAUUACGUAUA	-2.81 ± 0.24	-1.1 ± 0.16
UGCUAGCAAUAUUACGUGCU	-2.31 ± 0.16	-2 ± 0.17
UGCUAGCAAUAUUACGUGGG	-3.58 ± 0.27	-3.28 ± 0.35
UGCUAGCAAUAUUACGUUAA	-2.54 ± 0.14	-0.941 ± 0.11
UGCUAGCAAUAUUACGUUGG	-3.3 ± 0.19	-2.49 ± 0.2
UGGAAGCAAUAUUACGAACG	-0.465 ± 0.24	-0.592 ± 0.32
UGGAAGCAAUAUUACGACAA	-1.46 ± 0.14	-1.88 ± 0.17
UGGAAGCAAUAUUACGACCU	0.308 ± 0.11	0.699 ± 0.12
UGGAAGCAAUAUUACGAGGA	-2.94 ± 0.4	-2.82 ± 0.4
UGGAAGCAAUAUUACGAGGG		-1.89 ± 0.34
UGGAAGCAAUAUUACGCAAA	-1.24 ± 0.16	-0.937 ± 0.16
UGGAAGCAAUAUUACGCACU	-0.488 ± 0.12	-0.124 ± 0.15
UGGAAGCAAUAUUACGCAUU	-2.63 ± 0.27	
UGGAAGCAAUAUUACGCCCA		-0.992 ± 0.45
UGGAAGCAAUAUUACGCCCG	-0.383 ± 0.22	0.191 ± 0.27
UGGAAGCAAUAUUACGCGUC	-0.409 ± 0.2	-1.89 ± 0.27
UGGAAGCAAUAUUACGGACG	-1.13 ± 0.16	0.0618 ± 0.28
UGGAAGCAAUAUUACGGAGU	-3.51 ± 0.22	-2.75 ± 0.22

Sequence	self-splicing fitness (ln) (30 °C)	self-splicing fitness (ln) (37 °C)
UGGAAGCAAUAUUACGGCAC		-1.36 ± 0.37
UGGAAGCAAUAUUACGGCCC	-0.223 ± 0.15	0.256 ± 0.18
UGGAAGCAAUAUUACGGCUG	-0.475 ± 0.099	1.02 ± 0.12
UGGAAGCAAUAUUACGGGUG	-1.07 ± 0.063	-0.839 ± 0.083
UGGAAGCAAUAUUACGGUAA	-1.48 ± 0.18	-0.845 ± 0.14
UGGAAGCAAUAUUACGGUAC	-4.18 ± 0.39	-1.5 ± 0.25
UGGAAGCAAUAUUACGGUAU	-3.09 ± 0.38	
UGGAAGCAAUAUUACGGUCA	-0.00492 ± 0.13	0.828 ± 0.15
UGGAAGCAAUAUUACGGUGC	-2.93 ± 0.3	-2.86 ± 0.43
UGGAAGCAAUAUUACGUACC	-1.73 ± 0.19	-0.601 ± 0.23
UGGAAGCAAUAUUACGUAGG	-1.13 ± 0.067	-1.05 ± 0.092
UGGAAGCAAUAUUACGUAGU	-2.9 ± 0.27	-1.41 ± 0.2
UGGAAGCAAUAUUACGUAUG	-1.96 ± 0.16	-0.289 ± 0.14
UGGAAGCAAUAUUACGUGCA	-0.0243 ± 0.057	-0.187 ± 0.067
UGGCAGCAAUAUUACGAAGC		-1.72 ± 0.45
UGGCAGCAAUAUUACGAAGG	-2.93 ± 0.18	-1.21 ± 0.23
UGGCAGCAAUAUUACGACGG	-0.817 ± 0.15	0.837 ± 0.17
UGGCAGCAAUAUUACGACUA	0.138 ± 0.07	0.38 ± 0.1
UGGCAGCAAUAUUACGAGGA	-2.34 ± 0.34	-1.75 ± 0.26
UGGCAGCAAUAUUACGCAGC		-2.2 ± 0.39
UGGCAGCAAUAUUACGCCCU	-0.69 ± 0.27	
UGGCAGCAAUAUUACGCGCC		-2.9 ± 0.19
UGGCAGCAAUAUUACGGAUA	-0.806 ± 0.098	-0.358 ± 0.11
UGGCAGCAAUAUUACGGGAU	-2.84 ± 0.23	-2.48 ± 0.23
UGGCAGCAAUAUUACGGGCC		-1.78 ± 0.28
